We go through four molecules from article PMC11332829, “Elucidating regulation of polyhydroxyalkanoate metabolism in Ralstonia eutropha: Identification of transcriptional regulators from phasin and depolymerase genes”.

Usually Kd stands for the constant that tells how readily two partners part at equilibrium.

The target in data set [1] is T1, H16_B0227 (H-NS-like DNA-binding protein) (Ralstonia eutropha H16) (UniProt Q0K4P6).
T1 sequence: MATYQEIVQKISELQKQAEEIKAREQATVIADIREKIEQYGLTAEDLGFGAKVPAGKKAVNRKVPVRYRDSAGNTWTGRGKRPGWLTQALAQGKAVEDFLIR
Description: EMSA. The settings on record: EMSA: labeled DNA in TBE/glycerin-bromophenol blue with herring sperm DNA, 15 min at 30 C, 6% native PAGE at 4 C (protein eluted in 100 mM Tris-HCl pH 8, 150 mM). A general note: A gel shift assay detects complexes by their altered migration in electrophoresis.

Data set [2] addresses T2, H16_B1672 (HTH XRE-family like protein) (Ralstonia eutropha H16) (UniProt Q0K0L7).
T2 sequence: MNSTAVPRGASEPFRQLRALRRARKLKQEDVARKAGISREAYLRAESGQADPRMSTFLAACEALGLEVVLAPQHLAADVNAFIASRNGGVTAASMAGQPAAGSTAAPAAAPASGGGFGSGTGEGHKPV
Description: EMSA. The settings on record: EMSA: labeled DNA in TBE/glycerin-bromophenol blue with herring sperm DNA, 15 min at 30 C, 6% native PAGE at 4 C (protein eluted in 100 mM Tris-HCl pH 8, 150 mM).

Data set [3] concerns the target T3, PpiB (peptidyl-prolyl cis-trans isomerase) (Ralstonia eutropha H16?) (UniProt Q0KCB2).
T3 sequence: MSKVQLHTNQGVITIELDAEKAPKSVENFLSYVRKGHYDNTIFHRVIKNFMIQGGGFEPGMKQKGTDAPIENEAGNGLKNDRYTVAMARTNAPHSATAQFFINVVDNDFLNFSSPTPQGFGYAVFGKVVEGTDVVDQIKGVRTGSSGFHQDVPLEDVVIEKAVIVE
The experiment in a line: EMSA. The settings on record: EMSA: labeled DNA in TBE/glycerin-bromophenol blue with herring sperm DNA, 15 min at 30 C, 6% native PAGE at 4 C (protein eluted in 100 mM Tris-HCl pH 8, 150 mM).

For data set [4], the target named is T4, H16_B1672 (HTH XRE-family like protein) (Ralstonia eutropha H16, UniProt Q0K0L7 1-128).
T4 sequence: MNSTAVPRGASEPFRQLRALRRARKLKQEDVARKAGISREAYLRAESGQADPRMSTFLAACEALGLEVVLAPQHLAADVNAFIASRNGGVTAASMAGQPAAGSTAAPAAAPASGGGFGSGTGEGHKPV
Description: EMSA. The conditions noted are these: EMSA: labeled DNA in TBE/glycerin-bromophenol blue with herring sperm DNA, 15 min at 30 C, 6% native PAGE at 4 C (protein eluted in 100 mM Tris-HCl pH 8, 150 mM).

Data set [5] deals with T4, H16_B1672 (HTH XRE-family like protein). The experiment in a line: EMSA; EMSA: labeled DNA in TBE/glycerin-bromophenol blue with herring sperm DNA, 15 min at 30 C, 6% native PAGE at 4 C (protein eluted in 100 mM Tris-HCl pH 8, 150 mM NaCl, 1 mM EDTA, 2.5 mM desthiobiotin); pull-down: crude extract, 0.5x TBE, salmon sperm DNA, 1 h at 8 C. The settings on record: protein: recombinant; tags: Strep-tag; chain copies: 2; label: 5'-32P on MG0235; blunt.

Regarding “ATCGAATTCGGACCCGCGTCCGAGGTATCGCAGCGCCTGGCTGACATCATGCTTGAGGCGTTGCGTCCAGTGTGATGGCGGCGGCGGGATGGCTGGTCACGCCCTATCGGATCGGCGGTGAACCATCGAATTCCGGCCGTTCACGTAACAGGATGCGGAAGACCGGTACGGGGTCGCAAGCAAGCGGGCCCCGCCAGCGGCGCGGCGCTTGATGTTTGGCGTTGCAGCAAGGCCTGTCCGACATATAGTGAAATCCTGGC (double strand) [PphaZ3 PCR fragment, EMSA]”, the binding result in data set [1], in data set [2] and in data set [3] was “no binding” each time.
Consider “ATCGGATCCGGGTGCTGCGCAATGCGGGCTTCAGCGCAGTTGGCGTGCCCGACAGCCGCATGGCCGGCTTCGTGCAAGGTGGGCGGGCGGGCGACAGGCTTCTGCCGCGGGTGCGTAGGTGGGAAGGTGGCGCTGGTGCACTGAGAAGTGCTGCGCGCGGCTCAGGTGCCGTCGATGTCGAATGGACTGGCTGCGGGAGGCTCCGGTCGAATTCGAT (double strand) [PphaZ5 PCR fragment, EMSA]”, for which the binding entry in data set [1] and in data set [3] was “no binding” each time. The same molecule showed a Kd in data set [2] of 1500 nM.
On to PphaZ5 PCR fragment, EMSA, for which, in data set [4], the Kd is 1500 nM.

B1: PphaP1 100-mer (MG0235/MG0236), EMSA (dsDNA)
DNA 1: TGGCGTCACAGCCGCTCCCGTGTATCGCCAGCAACGTTGTTTGTGCATTGCACAAAATCCACTTGACATTGGATCTGGCGCCCCTAAAATAGGAATTGTT
DNA 2: AACAATTCCTATTTTAGGGGCGCCAGATCCAATGTCAAGTGGATTTTGTGCAATGCACAAACAACGTTGCTGGCGATACACGGGAGCGGCTGTGACGCCA
Take B1: in data set [5], the Kd amounted to 175 nM.
